Results as given in US20110033389A1 (published 2011).

B1: AC8FabTAT (Fab, V domains shown)
VH: QVQLVQSGAEVKKPGSSVKVSCKASGGSFSSYAINWVRQAPGQGLEWMGGLMPIFGTTNYAQKFQDRLTITADVSTSTAYMQLSGLTYEDTAMYYCARVAYMLEPTVTAGGLDVWGQGTTVTVAS
VL: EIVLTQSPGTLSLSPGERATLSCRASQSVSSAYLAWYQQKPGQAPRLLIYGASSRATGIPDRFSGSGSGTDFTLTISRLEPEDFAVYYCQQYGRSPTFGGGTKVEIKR
B2: AC8 Fab (Fab, V domains shown)
VH: B1 VH
VL: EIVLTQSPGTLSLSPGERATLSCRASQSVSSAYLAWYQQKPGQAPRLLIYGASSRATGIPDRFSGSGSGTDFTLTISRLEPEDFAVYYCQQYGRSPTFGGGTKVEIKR

Legend:
Assay in all cases: cell-based or functional assay
[1] = target: T1, glycoprotein D of Herpes simplex virus, on HSV-1 virus (Herpes simplex virus (HSV-1 virus in …, UniProt A1Z0Q5 26-394))
[2] = target: T1, glycoprotein D of Herpes simplex virus, …; remark: listed apart in the source
[3] = target: T1, glycoprotein D of Herpes simplex virus, …; remark: listed apart in the source

Binder | ED50 against HSV-1 infection; virus prevention assay (cells pre-treated with antibody, washed, then HSV-1) [1] | Plaque Reduction Rate Percentage (Average plaque number per plate) at 0.012 µg/ml; HSV-1 neutralization in solution [2] | Plaque Reduction Rate Percentage (Average plaque number per plate) at 0.037 µg/ml; HSV-1 neutralization in solution [2] | Plaque Reduction Rate Percentage (Average plaque number per plate) at 0.11 µg/ml; HSV-1 neutralization in solution [2] | Plaque Reduction Rate Percentage (Average plaque number per plate) at 0.33 µg/ml; HSV-1 neutralization in solution [2] | Plaque Reduction Rate Percentage (Average plaque number per plate) at 1 µg/ml; HSV-1 neutralization in solution [2] | Plaque Reduction Rate Percentage (Average plaque number per plate) at 3 µg/ml; HSV-1 neutralization in solution [2] | Plaque Reduction Rate Percentage (Average plaque number per plate) at 0.2 µg/ml; virus prevention assay (cells pre-treated with antibody, washed, then HSV-1) [3] | Plaque Reduction Rate Percentage (Average plaque number per plate) at 0.6 µg/ml; virus prevention assay (cells pre-treated with antibody, washed, then HSV-1) [3] | Plaque Reduction Rate Percentage (Average plaque number per plate) at 1.9 µg/ml; virus prevention assay (cells pre-treated with antibody, washed, then HSV-1) [3] | Plaque Reduction Rate Percentage (Average plaque number per plate) at 5.6 µg/ml; virus prevention assay (cells pre-treated with antibody, washed, then HSV-1) [3] | Plaque Reduction Rate Percentage (Average plaque number per plate) at 16.7 µg/ml; virus prevention assay (cells pre-treated with antibody, washed, then HSV-1) [3] | Plaque Reduction Rate Percentage (Average plaque number per plate) at 50 µg/ml; virus prevention assay (cells pre-treated with antibody, washed, then HSV-1) [3] | ED50; plaque reduction assay, HSV-1 neutralization in solution [1]
B1 | 27 µg/mL | 0% | 14% | 33% | 77% | 100% | 100% | 0% | 0% | 0% | 13% | 37% | 68% | –
B2 | – | – | – | – | – | – | – | – | – | – | – | – | – | ~0.2 µg/mL
